The values that follow come from paper PMC11374129.

The data set has as its target T1, EnvZ (Escherichia coli K12) (UniProt P0AEJ4).
T1 sequence: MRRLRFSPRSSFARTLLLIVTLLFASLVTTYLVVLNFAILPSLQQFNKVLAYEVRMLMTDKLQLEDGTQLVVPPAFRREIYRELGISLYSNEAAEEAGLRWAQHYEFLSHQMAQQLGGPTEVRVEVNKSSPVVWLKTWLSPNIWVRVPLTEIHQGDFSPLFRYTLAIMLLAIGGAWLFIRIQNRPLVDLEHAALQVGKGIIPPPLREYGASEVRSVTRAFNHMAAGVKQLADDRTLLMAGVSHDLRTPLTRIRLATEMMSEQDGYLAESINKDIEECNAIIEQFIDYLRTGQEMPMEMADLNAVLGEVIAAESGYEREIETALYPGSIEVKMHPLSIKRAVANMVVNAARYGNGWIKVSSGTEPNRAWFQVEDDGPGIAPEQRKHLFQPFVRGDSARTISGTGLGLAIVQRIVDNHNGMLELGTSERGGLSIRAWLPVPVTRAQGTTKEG
Description: EMSA.

Turning to “CACGGCGTGTTCTTCCGACAACGTTCTTAAAAAAACTTCTCTCTCCCAGGTCACACCAGTCACAGAGATTGGCTGTGAGTGTCGCTGTGCACAAACCGCGCACAGACTCATACAGTCCCGGCGGTTCCGTTCACAACCCACGCCTCATCCCCACCGACCCAACACACACCCCACAGTCATCGCCACCGTCATCCACAACTCCGAC (double strand) [oriC]”, the binding entry is listed as “no binding”.
